These results are taken from article PMC11381367.

The subject of one data set is RCC1. The data set is described as follows: SPR. Particulars: EMSA: 20 mM HEPES pH 7.6, 50 mM NaCl, 5% sucrose, 1 mM DTT, 2.5 mM MgCl2, 0.1 mg/ml BSA, on ice 1 h, SPR: 10 mM HEPES pH 7.4, 150 mM NaCl, 3 mM EDTA, 0.05% ….
Data set [1] addresses H2AK119ub nucleosome (dichloroacetone-linked ubiquitin on histone H2A-K119, Xenopus laevis histones) (Xenopus laevis | not stated) (UniProt P06897). The data set is described as follows: SPR; Biacore 8K; 5' biotinylated 185 bp nucleosome (about 200 RU) captured on streptavidin on a CM5 chip; RCC1 as analyte in 2-fold dilutions; HBS-EP+ (10 mM HEPES pH 7.4, 150 mM NaCl, 3 mM EDTA, 0.05% Tween-20); 1:1 steady-state affinity fit, two replicates.

Data set [2] addresses unmodified nucleosome (Xenopus laevis histones, Widom 601 DNA) (Xenopus laevis). The description is as above.

Chain of RCC1 (P18754 whole entry): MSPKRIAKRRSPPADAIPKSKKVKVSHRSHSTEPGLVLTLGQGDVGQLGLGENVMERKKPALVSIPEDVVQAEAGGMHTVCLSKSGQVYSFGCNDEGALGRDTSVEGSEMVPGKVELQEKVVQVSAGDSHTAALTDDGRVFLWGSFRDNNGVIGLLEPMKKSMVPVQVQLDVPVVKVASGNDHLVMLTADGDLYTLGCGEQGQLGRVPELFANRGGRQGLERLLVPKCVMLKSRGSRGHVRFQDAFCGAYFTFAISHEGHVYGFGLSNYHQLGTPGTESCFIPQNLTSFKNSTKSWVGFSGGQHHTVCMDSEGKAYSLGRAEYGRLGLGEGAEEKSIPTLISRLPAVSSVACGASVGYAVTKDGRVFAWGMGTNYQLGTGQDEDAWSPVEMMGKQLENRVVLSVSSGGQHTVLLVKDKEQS

For H2AK119ub nucleosome, 185 bp 601 (SPR), in the data set on RCC1 (histone H2AK119ub), the dissociation constant (Kd) was 0.54 µM. In turn, H2BK120ub nucleosome, 185 bp 601 (SPR) gave a dissociation constant (Kd) in the data set with RCC1 (histone H2BK120ub) of over 10 µM.

In the case of “RCC1 (from UniProt P18754 1-421) (natural protein)”, the Kd in data set [1] was 0.54 µM; in data set [2], 0.73 µM. In the data set on RCC1 (unmodified histones), unmodified nucleosome, 185 bp 601 (SPR) registered a Kd of 0.73 µM.
